Experimental data from the nanobody polyreactivity screen of Harvey et al. (2022).

experiment: yeast display, Sf9 membrane polyspecificity reagent, FACS + sequencing; frameworks hold sequencing errors
Outline: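 Sorting gates, low and high (top ~1%), were placed on anti-HA fluorescence to track expression and on streptavidin fluorescence to track reagent binding. A clone's polyreactivity label is taken from the gate it came out of. The reagent was 10% biotinylated, detergent-solubilized Sf9 membrane, applied for 1 hour at 4 °C to galactose-induced yeast display cells.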

Row | Sequence | polyreactivity (PSR sort gate)
1 | QVQLVESGGGLVQAGGSLRLSSAASGSTFYWYAMGWYRQAPGKERELVASITRSGVRTYYADSVKGRFTISRDNAKNTVYLQMNSLKPEDTAVYYCAAERYYFPRSYRYGYWGQGTQVTVSS | low polyreactivity
2 | QVQLVESGGGLVQAGGSLRLSSAASGSTLYRYAMGWYRQAPGKERELVAAISRSGGNTYYADSVKGRFTISRDNAKNTVYLQMNSLKPEDTAVYYCNADSFIRYDYWGQGTQVTVSS | high polyreactivity
3 | QVQLVESGGGLVQAGGSLRLSSAASGYTFTINTMGWYRQAPGKERELVAAITWRGGSTYYADSVKGRFSISRDNAKNTVYLQMNSLKPEDTAVYYCNKDYYITTTTFDYWGQGTQVTVSS | low polyreactivity
4 | QVQLVESGGGLVQAGGSLRLSSAASRITFDQNAMGWYRQAPGKERELVAAITRGSSTNYADSVKGRFTISRDNAKNTVYLQMNSLKPEDTAVYYCNADGYARFRTYYSRDTREYDYWGQGTQVTVSS | low polyreactivity
5 | QVQLVESGGGLVQAGGSLRLSSAASRSIFDYYAMGWYRQAPGKEREFVAAISESSDSTYYADSVKGRFTISRDNAKNTVYLQMNSLKPEDTAVYYCAGQRGGPFPRVVDLYDYWGQGTQVTVSS | low polyreactivity
6 | QVQLVESGGGLVQAGGSLRLSSAAYGRIFAANANGWYRQAPGKERELVAAISSGGSTNYADSVKGRFTISRDNAKNTVYLPMISLKPEDTAVYYCAADASWYAYCYYYWGQGTQVTVSS | low polyreactivity
7 | QVQLVESGGGLVQAGGSLRLSSAAYGSIFDSNAMGWYRQAPGKERELVAAIRYSGGRTYYADSVKGRFTISRDNAKNTVYLQMNILKPEDTAVYYCAARSKVYKVGYNYWGQGTQVTVSS | high polyreactivity
8 | QVQLVESGGGLVQAGGSLRLSSADSGRIFYRYMVWYRHAPGKERELVAAISGRATRTYYADSVKGRFTISRDNAKKTVYLQMNSLKPEDTAVYYCAKRSYHGGDYWGQGTQVTVSS | high polyreactivity
9 | QVQLVESGGGLVQAGGSLRLSSAGSGRIFQPYAMGWYRQAPGKERELVAAITRRAGSTYYADSVKGRFTISRDNAKNTVYLQMNSLKPEDTAVYYWAARGLYWAYEMEDWGQGTQVTVSS | low polyreactivity
10 | QVQLVESGGGLVQAGGSLRLSSAPSGRTFGVYAMGWYRQAPGKERELVAAISATGGSTYYADSVKGRFTISRDNAKNTVYLQMNSLKPEDTAVYYCARGGTTLYWGQGTQVTVSS | high polyreactivity
11 | QVQLVESGGGLVQAGGSLRLSSASSGFTFNKYAMGRYRQAPGKERELVAAISSSGGSTRYADSVKGRFTISRDNAKNTVYLQMNSLNPEDTAVFYCAVYVTRDSGWLLYDYWGQGTQVTVSS | high polyreactivity
12 | QVQLVESGGGLVQAGGSLRLSSASSGRTFYKYAMGWYRQAPGKERELVAAISRRGGSTYYADSVKGRFTISRDNAKNTVYLQMNSLKPEDSAVYYCAAGGSVAFYYWGQGTQVTVSS | high polyreactivity
13 | QVQLVESGGGLVQAGGSLRLSSASSGSTSWIYAMGWYRPEPGKERELVAAISGRDGSTNYADSVKGRFTISRDNAKNTVYLQMIRVKPEDTAVYDCNATGRSFKRYGGDYWGQGTQVTVSS | high polyreactivity
14 | QVQLVESGGGLVQAGGSLRLSSASTGLIFRWYEMGRYRQPPGKETELVAAISRRGGTTNYADSVKGRFTISRDIAKITVYLQMNSLKPEDTAVYYCAADYQSVGVAEYEYWGQGTQVTVSS | high polyreactivity
15 | QVQLVESGGGLVQAGGSLRLSSGAYGITFWTYAMGWYRQAHGKERELVAAISNGGSTSYADSVKGRFTISRDNAKNTVYLQINILKPEDTAVYYCASDWATHRPWYWCVYYWGQGTQVTVSS | low polyreactivity
16 | QVQLVESGGGLVQAGGSLRLSSPASGRTIRSYAMGSYRQAPGKERELVAAINSSGGSTYYADSVKARFTISRDNAKNTVYLQMNSLKPEDTAVYYCNTDYSSTSPWRAANYWGQGTQVTVSS | high polyreactivity
17 | QVQLVESGGGLVQAGGSLRLSSPASGSIYRKYGMGSYRQAPGKERELVATITSSGGSTYYADSVKGRFSISRDNAKKTVYLQMNSLKPEDTAVYYCAADYYYLPGSYQVRAMYYWGQGTQVTVSS | high polyreactivity
